Measured values from patent publication US20230364193A1, “COMBINED DRUG FOR TREATING CORONARIVUS DISEASE 2019” (SICHUAN UNIVERSITY WEST CHINA HOSPITAL, priority 2020, published 2023).
Read-outs that look alike come from different tables or passages of the source.

How the values were obtained:
[1] = tested on: patients with moderate or severe COVID-19; conditions: for clinical improvement rate day 28, (%): called clinical remission rate in b66; for Time for clinical improvement (days), median: called clinical remission; for Time for radiographic improvement (days), median: chest CT, absorption of inflammation; for Time for Viral nucleic acid to turn negative (days), median: real-time fluorescence quantitative PCR; for serious adverse reaction (cases): safety analysis set, the IFN-α case was respiratory failure
[2] = tested on: SARS-CoV-2 virus; experiment: microbe, parasite or virus in culture; conditions: Vero-E6
[3] = tested on: SARS-CoV-2 virus; conditions: for EC50 Experiment 1 / EC50 Experiment 2 / EC50 Experiment 3 / EC50 means: Vero-E6; for EC50 means: mean of 3 experiments
[4] = tested on: Vero-E6 cells; experiment: Cytotoxicity assay on Vero-E6 cells (CCK-8, 48 hours)
Procedure: • 1) Vero-E6 cells were inoculated in a 96-well plate at 1×10^4 cells per well the day before; • 2) The cell state was observed until the confluence reached about 50%. The rSIFN-co was diluted by 2.17-fold with 2×DMEM medium containing 4% […], as the highest concentration, namely 6×10^8 pg/ml.
The plates were cultured in an incubator at 37° C. and 5% CO2; • 4) 48 hours after adding the drug, 1/10 volume of Cell Counting […] (CCK-8) was directly added to the cell culture medium, mixed well, and air bubbles should be avoided. Cells were incubated in an incubator at 37° C. for 1 hour until the color turned into orange. The blank group was set as zero, and the absorbance at 450 nm was measured with a multifunctional microplate reader, and the survival rate was calculated as follows: survival rate (%)=OD450 of the test group/OD450 of the control group×100%.

[5] = day 7, percent of group, added to baseline treatment
[6] = day 14, percent of group, added to baseline treatment
[7] = day 28, percent of group, added to baseline treatment

Question: Which results are given for IFN-α?
Answer: Radiographic Improvement Rate Day 7, (%) ([1]; Day 7): (25.0) %; Rate for Viral nucleic acid to turn negative Day 7, (%) ([1]; Day 7): (31.3) %; Radiographic Improvement Rate Day 14, (%) ([1]; Day 14): (66.7) %; Rate for Viral nucleic acid to turn negative Day 14, (%) ([1]; Day 14): (64.6) %; Radiographic Improvement Rate Day 28, (%) ([1]; Day 28): (79.2) %; Rate for Viral nucleic acid to turn negative Day 28, (%) ([1]; Day 28): (85.4) %; clinical improvement rate day 7, (%) ([1]; day 7): (6.3) %; 7-level scale on day 7, 2: Not hospitalized, but unable to return to normal activities, (%) [1, 5]: (12.5) %; 7-level scale on day 7, 3: Hospitalized, no need for supplemental oxygen, (%) [1, 5]: (25.0) %; 7-level scale on day 7, 4: Hospitalized, requiring supplemental oxygen, (%) [1, 5]: (43.8) %; 7-level scale on day 7, 5: Hospitalized, requiring nasal high-flow oxygen therapy or non-invasive mechanical ventilation, (%) [1, 5]: (16.7) %; 7-level scale on day 7, 6: Hospitalized, requiring extracorporeal membrane oxygenation, invasive mechanical ventilation, or both, (%) [1, 5]: (2.0) %; clinical improvement rate day 14, (%) ([1]; day 14): (39.6) %; 7-level scale on day 14, 2: Not hospitalized, but unable to return to normal activities, (%) [1, 6]: (43.8) %; 7-level scale on day 14, 3: Hospitalized, no need for supplemental oxygen, (%) [1, 6]: (31.2) %; 7-level scale on day 14, 4: Hospitalized, requiring supplemental oxygen, (%) [1, 6]: (16.7) %; 7-level scale on day 14, 5: Hospitalized, requiring nasal high-flow oxygen therapy or non-invasive mechanical ventilation, (%) [1, 6]: (6.3) %; 7-level scale on day 14, 6: Hospitalized, requiring extracorporeal membrane oxygenation, invasive mechanical ventilation, or both, (%) [1, 6]: (2.0) %; clinical improvement rate day 28, (%) ([1]; day 28): 77.1%; clinical improvement rate day 28, (%) ([1]; day 28, listed as IFN- α): (77.1) %; 7-level scale on day 28, 2: Not hospitalized, but unable to return to normal activities, (%) [1, 7]: (91.6) %; 7-level scale on day 28, 3: Hospitalized, no need for supplemental oxygen, (%) [1, 7]: (2.1) %; 7-level scale on day 28, 4: Hospitalized, requiring supplemental oxygen, (%) [1, 7]: (4.2) %; 7-level scale on day 28, 6: Hospitalized, requiring extracorporeal membrane oxygenation, invasive mechanical ventilation, or both, (%) [1, 7]: (2.1) %; Deterioration rate, (%) ([1]; human, in vivo): (2.1) %; Time for clinical improvement (days), median ([1]; added to baseline treatment): 14.0 days; Time for radiographic improvement (days), median [1]: 10.0 days; Time for Viral nucleic acid to turn negative (days), median [1]: 10.0 days; serious adverse reaction (cases) [1]: 1

Question: Which EC50 ([2]; Severe acute respiratory syndrome coronavirus 2, Vero C1008, read-out: EC50 Experiment 1, MOI: 0.005 (50 PFU)) does the source give for `CCN(CC)CCCC(C)Nc1ccnc2cc(Cl)ccc12` (stereo not shown) [Chloroquine] here?
Answer: 1.7 µM

Question: What about the EC50 ([2]; Severe acute respiratory syndrome coronavirus 2, Vero C1008, read-out: EC50 Experiment 1, MOI: 0.05 (500 PFU)) of the same molecule?
Answer: 3.65 µM

Question: And the EC50 ([2]; Severe acute respiratory syndrome coronavirus 2, Vero C1008, read-out: EC50 Experiment 1, MOI: 0.5 (5000 PFU))?
Answer: 5.25 µM

Question: And the EC50 ([2]; Severe acute respiratory syndrome coronavirus 2, Vero C1008, read-out: EC50 Experiment 2, MOI: 0.005 (50 PFU))?
Answer: 1.77 µM

Question: What about the EC50 ([2]; Severe acute respiratory syndrome coronavirus 2, Vero C1008, read-out: EC50 Experiment 2, MOI: 0.05 (500 PFU)) of the same molecule?
Answer: 4.23 µM

Question: And the EC50 ([2]; Severe acute respiratory syndrome coronavirus 2, Vero C1008, read-out: EC50 Experiment 2, MOI: 0.5 (5000 PFU))?
Answer: 5.72 µM

Question: What about the EC50 ([2]; Severe acute respiratory syndrome coronavirus 2, Vero C1008, read-out: EC50 Experiment 3, MOI: 0.005 (50 PFU)) of the same molecule?
Answer: 2.34 µM

Question: What about the EC50 ([2]; Severe acute respiratory syndrome coronavirus 2, Vero C1008, read-out: EC50 Experiment 3, MOI: 0.05 (500 PFU)) of the same molecule?
Answer: 2.34 µM

Question: What about the EC50 ([2]; Severe acute respiratory syndrome coronavirus 2, Vero C1008, read-out: EC50 Experiment 3, MOI: 0.5 (5000 PFU)) of the same molecule?
Answer: 5.04 µM

Question: What about the EC50 ([2]; Severe acute respiratory syndrome coronavirus 2, Vero C1008, read-out: EC50 means, MOI: 0.005 (50 PFU), mean of 3 experiments) of the same molecule?
Answer: 1.94 µM

Question: And the EC50 ([2]; Severe acute respiratory syndrome coronavirus 2, Vero C1008, read-out: EC50 means, MOI: 0.05 (500 PFU), mean of 3 experiments)?
Answer: 3.41 µM

Question: What about the EC50 ([2]; Severe acute respiratory syndrome coronavirus 2, Vero C1008, read-out: EC50 means, MOI: 0.5 (5000 PFU), mean of 3 experiments) of the same molecule?
Answer: 5.34 µM

B1: rSIFN-co: new type of genetically engineered interferon produced by changing 65 bases of the genetic code of IFN-α; amino acid sequence SEQ ID NO.2 (protein)
chain: MCDLPQTHSLGNRRALILLAQMRRISPFSCLKDRHDFGFPQEEFDGNQFQKAQAISVLEMIQQTFNLFSTKDSSAAWDESLLEKFYTELYQQLNDLEACVIQEVGVEETPLMNVDSILAVKKYFQRITLYLTEKKYSPCAWEVVRAEIMRSFSLSTNLQERLRRKE
modifications: rSIFN-co Synthetic amino acid sequence
Question: What does the source list for B1?
Answer: TI (CC50/EC50) ([3]; MOI: 0.005 (50 PFU)): 5.35×10^7; EC50 Experiment 1 ([3]; MOI: 0.005 (50 PFU)): 0.01531 ng/mL; EC50 Experiment 2 ([3]; MOI: 0.005 (50 PFU)): 0.01401 ng/mL; EC50 Experiment 3 ([3]; MOI: 0.005 (50 PFU)): 0.01058 ng/mL; EC50 means ([3]; MOI: 0.005 (50 PFU)): 0.0133 ng/mL; TI (CC50/EC50) ([3]; MOI: 0.005 (50 PFU), listed as Recombinant super-compound interferon (rSIFN-co)): 5.35 × 10^7; TI (CC50/EC50) ([3]; MOI: 0.05 (500 PFU)): 5.77×10^6; EC50 Experiment 1 ([3]; MOI: 0.05 (500 PFU)): 0.1418 ng/mL; EC50 Experiment 2 ([3]; MOI: 0.05 (500 PFU)): 0.1257 ng/mL; EC50 Experiment 3 ([3]; MOI: 0.05 (500 PFU)): 0.1024 ng/mL; EC50 means ([3]; MOI: 0.05 (500 PFU)): 0.1233 ng/mL; TI (CC50/EC50) ([3]; MOI: 0.05 (500 PFU), listed as Recombinant super-compound interferon (rSIFN-co)): 5.77 × 10^6; TI (CC50/EC50) ([3]; MOI: 0.5 (5000 PFU)): 4.71×10^6; EC50 Experiment 1 ([3]; MOI: 0.5 (5000 PFU)): 0.1886 ng/mL; EC50 Experiment 2 ([3]; MOI: 0.5 (5000 PFU)): 0.1397 ng/mL; EC50 Experiment 3 ([3]; MOI: 0.5 (5000 PFU)): 0.1253 ng/mL; EC50 means ([3]; MOI: 0.5 (5000 PFU)): 0.1512 ng/mL; TI (CC50/EC50) ([3]; MOI: 0.5 (5000 PFU), listed as Recombinant super-compound interferon (rSIFN-co)): 4.71 × 10^6; inhibition of SARS-CoV-2 replication in Vero-E6 cell model ([3]; result in words): dose-dependent manner; CC50 Experiment 1 [4]: 651000 ng/mL; CC50 Experiment 2 [4]: 806000 ng/mL; CC50 Experiment 3 [4]: 680000 ng/mL; CC50 means ([4]; mean of 3 experiments): 712000 ng/mL; Radiographic Improvement Rate Day 7, (%) ([1]; Day 7): (43.5) %; Rate for Viral nucleic acid to turn negative Day 7, (%) ([1]; Day 7): (50.0) %; Radiographic Improvement Rate Day 7, differences (rate difference) ([1]; Day 7, rSIFN-co vs IFN-α): 18.5; Rate for Viral nucleic acid to turn negative Day 7, differences (rate difference) ([1]; Day 7, rSIFN-co vs IFN-α): 18.7; Radiographic Improvement Rate Day 14, (%) ([1]; Day 14): (84.8) %; Rate for Viral nucleic acid to turn negative Day 14, (%) ([1]; Day 14): (76.1) %; Radiographic Improvement Rate Day 14, differences (rate difference) ([1]; Day 14, rSIFN-co vs IFN-α): 18.1; Rate for Viral nucleic acid to turn negative Day 14, differences (rate difference) ([1]; Day 14, rSIFN-co vs IFN-α): 11.5; Radiographic Improvement Rate Day 28, (%) ([1]; Day 28): (91.3) %; Rate for Viral nucleic acid to turn negative Day 28, (%) ([1]; Day 28): (97.8) %; Radiographic Improvement Rate Day 28, differences (rate difference) ([1]; Day 28, rSIFN-co vs IFN-α): 12.1; Rate for Viral nucleic acid to turn negative Day 28, differences (rate difference) ([1]; Day 28, rSIFN-co vs IFN-α): 12.4; clinical improvement rate day 7, (%) ([1]; day 7): (10.9) %; 7-level scale on day 7, 2: Not hospitalized, but unable to return to normal activities, (%) [1, 5]: (13.0) %; 7-level scale on day 7, 3: Hospitalized, no need for supplemental oxygen, (%) [1, 5]: (19.6) %; 7-level scale on day 7, 4: Hospitalized, requiring supplemental oxygen, (%) [1, 5]: (50.0) %; 7-level scale on day 7, 5: Hospitalized, requiring nasal high-flow oxygen therapy or non-invasive mechanical ventilation, (%) [1, 5]: (17.4) %; clinical improvement rate day 7, differences (rate difference) ([1]; day 7, rSIFN-co vs IFN-α): 4.6; clinical improvement rate day 14, (%) ([1]; day 14): (65.2) %; 7-level scale on day 14, 2: Not hospitalized, but unable to return to normal activities, (%) [1, 6]: (58.7) %; 7-level scale on day 14, 3: Hospitalized, no need for supplemental oxygen, (%) [1, 6]: (21.7) %; 7-level scale on day 14, 4: Hospitalized, requiring supplemental oxygen, (%) [1, 6]: (17.4) %; 7-level scale on day 14, 5: Hospitalized, requiring nasal high-flow oxygen therapy or non-invasive mechanical ventilation, (%) [1, 6]: (2.2) %; clinical improvement rate day 14, differences (rate difference) ([1]; day 14, rSIFN-co vs IFN-α): 25.6; 7-level scale on day 28, 2: Not hospitalized, but unable to return to normal activities, (%) [1, 7]: (95.6) %; 7-level scale on day 28, 3: Hospitalized, no need for supplemental oxygen, (%) [1, 7]: (2.2) %; 7-level scale on day 28, 4: Hospitalized, requiring supplemental oxygen, (%) [1, 7]: (2.2) %; clinical improvement rate day 28, differences (rate difference) ([1]; day 28, rSIFN-co vs IFN-α): 16.4; Time for clinical improvement (days), median ([1]; added to baseline treatment): 11.5 days; Time for radiographic improvement (days), median [1]: 8.0 days; Time for Viral nucleic acid to turn negative (days), median [1]: 7.0 days; Deterioration rate, differences (rate difference) ([1]; rSIFN-co vs IFN-α): −2.1; Time for Viral nucleic acid to turn negative, differences (hazard ratio) ([1]; rSIFN-co vs IFN-α, Cox model): 1.74; Time for clinical improvement, differences (hazard ratio) ([1]; rSIFN-co vs IFN-α, Cox model): 1.76; Time for radiographic improvement, differences (hazard ratio) ([1]; rSIFN-co vs IFN-α, Cox model): 2.19; serious adverse reaction (cases) [1]: no serious adverse reaction
